Blank lines part the entries; values can stand above or below the molecule they belong to.
What was measured:
[1] = biological target: Vγ9Vδ2 T cell receptor on expanded primary human Vγ9Vδ2 T cells (human) (UniProt Q99603); assay: cell-based or functional assay
[2] = biological target: Recombinant human Vγ9Vδ2-Fc fusion protein (human) (UniProt Q99603); assay: BLI (Octet RED96), Vγ9Vδ2-Fc captured on anti-human Fc sensors, VHH as analyte, 1:1 fit; mean of at least three measurements +/- SD
[3] = biological target: Recombinant human Vγ9Vδ2-Fc fusion protein (human) (UniProt Q99603); assay: BLI (Octet), single VHH on recombinant Vγ9Vδ2 TCR protein
[4] = biological target: Recombinant human Vγ9Vδ2-Fc fusion protein (human) (UniProt Q99603); assay: BLI (Octet), single VHH on recombinant Vγ9Vδ2 TCR
[5] = biological target: T1, recombinant purified CD123-Fc fusion protein (Bio-Techne/R&D Systems) (human, UniProt P26951 19-305, limits assumed); assay: BLI (Octet Red96e), CD123-Fc on anti-human IgG Fc capture sensors; measured twice, SD 0.4
T1 construct: Bought protein; also called recombinant CD123; not shown: Fc part of the bought fusion protein
T1 sequence (looked up): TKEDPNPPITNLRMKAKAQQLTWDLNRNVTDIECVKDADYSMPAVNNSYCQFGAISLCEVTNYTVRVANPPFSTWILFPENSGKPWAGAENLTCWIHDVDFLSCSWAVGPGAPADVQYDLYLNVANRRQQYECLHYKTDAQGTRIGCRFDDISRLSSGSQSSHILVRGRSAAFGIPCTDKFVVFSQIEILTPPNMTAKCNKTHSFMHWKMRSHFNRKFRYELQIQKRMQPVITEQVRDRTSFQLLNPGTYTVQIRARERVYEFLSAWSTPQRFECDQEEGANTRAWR

[6] = biological target: T1, recombinant purified CD123-Fc fusion …; assay: BLI (Octet Red96e), CD123-Fc on anti-human IgG Fc capture sensors; measured twice, SD 1.5
[7] = biological target: T1, recombinant purified CD123-Fc fusion …; assay: BLI (Octet Red96e), CD123-Fc on anti-human IgG Fc capture sensors; measured twice, SD 4.3
[8] = biological target: T1, recombinant purified CD123-Fc fusion …; assay: BLI (Octet Red96e), CD123-Fc on anti-human IgG Fc capture sensors; *low binding (>20 nM), one measurement only
[9] = biological target: T1, recombinant purified CD123-Fc fusion …; assay: BLI (Octet Red96e), CD123-Fc on anti-human IgG Fc capture sensors; measured twice, SD 7.5
[10] = biological target: T1, recombinant purified CD123-Fc fusion …; assay: BLI (Octet Red96e), CD123-Fc on anti-human IgG Fc capture sensors; measured twice, SD 0.5
[11] = biological target: T1, recombinant purified CD123-Fc fusion …; assay: BLI (Octet Red96e), CD123-Fc on anti-human IgG Fc capture sensors; measured twice, SD 0.7
Procedure: Different sensors were then dipped in different concentrations of humanized 1D2-5C8var1 variants, starting at 50 nM and two-fold dilutions thereof; dilutions were made in 10x kinetic buffer (10×KB) provided by the supplier. From the obtained sensorgrams, the kinetic association- and dissociation rate constants were determined by curve fitting. The association- and dissociation rate constants, when fitting was possible, were used to calculate the affinity of the humanized 1D2-5C8var1 variants for binding to CD123. […] For reference, the non-humanized (parental) 1D2 was included in these experiments.

[12] = biological target: Vγ9Vδ2 T cell receptor on expanded primary human Vγ9Vδ2 T cells (human), Q99603; assay: cell-based or functional assay
Sequence of Vγ9Vδ2 T cell receptor on expanded primary human Vγ9Vδ2 T cells (human), Q99603 (Q99603 21-122, stated change not applied, chain 1 of 2): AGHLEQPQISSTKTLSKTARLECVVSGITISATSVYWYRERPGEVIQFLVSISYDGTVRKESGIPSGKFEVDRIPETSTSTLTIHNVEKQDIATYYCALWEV
Sequence of Vγ9Vδ2 T cell receptor on expanded primary human Vγ9Vδ2 T cells (human), Q99603 (A0JD36 20-115, stated change not applied, chain 2 of 2, further chain): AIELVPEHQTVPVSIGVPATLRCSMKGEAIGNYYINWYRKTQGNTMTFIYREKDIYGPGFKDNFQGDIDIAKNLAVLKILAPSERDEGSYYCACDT

Sequence of Vγ9Vδ2 T cell receptor on expanded primary human Vγ9Vδ2 T cells (human) (Q99603 21-122, stated change not applied, chain 1 of 2): as the sequence (Q99603 21-122, stated change not applied, chain 1 of 2) above
Sequence of Vγ9Vδ2 T cell receptor on expanded primary human Vγ9Vδ2 T cells (human) (A0JD36 20-115, stated change not applied, chain 2 of 2, further chain): as the sequence (A0JD36 20-115, stated change not applied, chain 2 of 2, further chain) above

EC50 degranulation (CD107A+ Vγ9Vδ2 T cells, 4 h, A431 target cells) [1]: 10 pM
Molecule: bispecific VHH 7D12-5C8 (non-humanized) (bispecific antibody)
EC50 cytotoxicity (A431 tumour cell kill, 24 h) [1]: 9 pM

Kd [3]: 1.2 nM
B2: VHH 5C8var1-Y105F/R109A (VHH)
VHH: EVQLLESGGGSVQPGGSLRLSCAASGRPFSNYAMSWFRQAPGKEREFVSAISWSGGSTSYADSVKGRFTISRDNSKNTLYLQMNSLRAEDTAVYYCAAQFSGADFGFGALGIRGYEYDYWGQGTQVTVSS

fold reduction of affinity against 5C8var1-Y105F [4]: 10 fold
Kd [3]: 9.2 nM
B3: VHH 5C8var1-Y105F/G108A (VHH)
VHH: EVQLLESGGGSVQPGGSLRLSCAASGRPFSNYAMSWFRQAPGKEREFVSAISWSGGSTSYADSVKGRFTISRDNSKNTLYLQMNSLRAEDTAVYYCAAQFSGADFGFARLGIRGYEYDYWGQGTQVTVSS

Kd [2]: 1.59 nM
B4: VHH 5C8var1-Y105S (VHH)
VHH: EVQLLESGGGSVQPGGSLRLSCAASGRPFSNYAMSWFRQAPGKEREFVSAISWSGGSTSYADSVKGRFTISRDNSKNTLYLQMNSLRAEDTAVYYCAAQFSGADSGFGRLGIRGYEYDYWGQGTQVTVSS

Kd [2]: 0.78 nM
Kd [3]: 0.74 nM
B5: VHH 5C8var1-Y105F (VHH)
VHH: EVQLLESGGGSVQPGGSLRLSCAASGRPFSNYAMSWFRQAPGKEREFVSAISWSGGSTSYADSVKGRFTISRDNSKNTLYLQMNSLRAEDTAVYYCAAQFSGADFGFGRLGIRGYEYDYWGQGTQVTVSS

Kd [3]: 0.82 nM
B6: VHH 5C8var1-Y105F/R109K (VHH)
VHH: EVQLLESGGGSVQPGGSLRLSCAASGRPFSNYAMSWFRQAPGKEREFVSAISWSGGSTSYADSVKGRFTISRDNSKNTLYLQMNSLRAEDTAVYYCAAQFSGADFGFGKLGIRGYEYDYWGQGTQVTVSS

EC50 degranulation (CD107A+ Vγ9Vδ2 T cells, 4 h, A431 target cells) [12]: 11 pM
B16: bispecific VHH 7D12var8-5C8var1-Y105F (bispecific antibody)
chain: EVQLVESGGGSVQPGGSLRLSCAASGRTSRSYGMGWFRQAPGKEREFVSGISWRGDSTGYADSVKGRFTISRDNAKNTVDLQMNSLRAEDTAVYYCAAAAGSAWYGTLYEYDYWGQGTLVTVSSGGGGSEVQLLESGGGSVQPGGSLRLSCAASGRPFSNYAMSWFRQAPGKEREFVSAISWSGGSTSYADSVKGRFTISRDNSKNTLYLQMNSLRAEDTAVYYCAAQFSGADFGFGRLGIRGYEYDYWGQGTQVTVSS
EC50 cytotoxicity (A431 tumour cell kill, 24 h) [12]: 2.5 pM

Continued, molecule first:

B1: VHH 5C8var1 (VHH)
VHH: EVQLLESGGGSVQPGGSLRLSCAASGRPFSNYAMSWFRQAPGKEREFVSAISWSGGSTSYADSVKGRFTISRDNSKNTLYLQMNSLRAEDTAVYYCAAQFSGADYGFGRLGIRGYEYDYWGQGTQVTVSS
modifications: Y105 partly sulfated (as found for 5C8 and for 1D12var5-5C8var1)
Kd [2]: 0.81 nM

B7: SEQ ID NO 26 (Table 12): humanized 1D2 variant as bispecific VHH with 5C8var1 (bispecific antibody)
chain: EVQLVESGGGLVQPGGSLRLSCAASGRTASSYVMGWFRQAPGKEREFVSVINWNGDSTYYADSVKGRFTISRDNSKNTLYLQMNSLRAEDTAVYYCAADTRREWYRDGYWGPPARYEYDYRGQGTQVTVSSGGGGSEVQLLESGGGSVQPGGSLRLSCAASGRPFSNYAMSWFRQAPGKEREFVSAISWSGGSTSYADSVKGRFTISRDNSKNTLYLQMNSLRAEDTAVYYCAAQFSGADYGFGRLGIRGYEYDYWGQGTQVTVSS
Kd [5]: 7.2 nM

B8: SEQ ID NO 30 (Table 12): humanized 1D2 variant as bispecific VHH with 5C8var1 (bispecific antibody)
chain: EVQLVESGGGLVQPGGSLRLSCAASGRTASSYVMSWFRQAPGKEREFVAVINWNGDSTYYADSVKGRFTISRDNSKNTVYLQMNSLRAEDTAVYYCAADTRREWYRDGYWGPPARYEYDYRGQGTLVTVSSGGGGSEVQLLESGGGSVQPGGSLRLSCAASGRPFSNYAMSWFRQAPGKEREFVSAISWSGGSTSYADSVKGRFTISRDNSKNTLYLQMNSLRAEDTAVYYCAAQFSGADYGFGRLGIRGYEYDYWGQGTQVTVSS
Kd [6]: 7.7 nM

B9: SEQ ID NO 28 (Table 12): humanized 1D2 variant as bispecific VHH with 5C8var1 (bispecific antibody)
chain: EVQLVESGGGLVQPGGSLRLSCAASGRTASSYVMSWFRQAPGKEREWVAVINWNGDSTYYADSVKGRFTISRDNSKNTVYLQMNSLRAEDTAVYYCAADTRREWYRDGYWGPPARYEYDYRGQGTLVTVSSGGGGSEVQLLESGGGSVQPGGSLRLSCAASGRPFSNYAMSWFRQAPGKEREFVSAISWSGGSTSYADSVKGRFTISRDNSKNTLYLQMNSLRAEDTAVYYCAAQFSGADYGFGRLGIRGYEYDYWGQGTQVTVSS
Kd [7]: 14.9 nM

B10: SEQ ID NO 27 (Table 12): humanized 1D2 variant as bispecific VHH with 5C8var1 (bispecific antibody)
chain: EVQLVESGGGLVQPGGSLRLSCAASGRTASSYVMGWVRQAPGKEREWVSVINWNGDSTYYADSVKGRFTISRDNSKNTLYLQMNSLRAEDTAVYYCAADTRREWYRDGYWGPPARYEYDYRGQGTLVTVSSGGGGSEVQLLESGGGSVQPGGSLRLSCAASGRPFSNYAMSWFRQAPGKEREFVSAISWSGGSTSYADSVKGRFTISRDNSKNTLYLQMNSLRAEDTAVYYCAAQFSGADYGFGRLGIRGYEYDYWGQGTQVTVSS
Kd [8]: 24.5 nM

B11: SEQ ID NO 29 (Table 12): humanized 1D2 variant as bispecific VHH with 5C8var1 (bispecific antibody)
chain: EVQLVESGGGVVQPGGSLRLSCAASGRTASSYVMSWFRQAPGKEREWVAVINWNGDSTYYADSVKGRFTISRDNSKNTLYLQMNSLRAEDTAVYYCAADTRREWYRDGYWGPPARYEYDYRGQGTTVTVSSGGGGSEVQLLESGGGSVQPGGSLRLSCAASGRPFSNYAMSWFRQAPGKEREFVSAISWSGGSTSYADSVKGRFTISRDNSKNTLYLQMNSLRAEDTAVYYCAAQFSGADYGFGRLGIRGYEYDYWGQGTQVTVSS
Kd [9]: 20 nM

B12: SEQ ID NO 31 (Table 12): humanized 1D2 variant as bispecific VHH with 5C8var1 (bispecific antibody)
chain: EVQLVESGGGLVQPGGSLRLSCAASGRTASSYVMGWVRQAPGKGLEWVSVINWNGDSTYYADSVKGRFTISRDNSKNTLYLQMNSLRAEDTAVYYCAADTRREWYRDGYWGPPARYEYDYRGQGTLVTVSSGGGGSEVQLLESGGGSVQPGGSLRLSCAASGRPFSNYAMSWFRQAPGKEREFVSAISWSGGSTSYADSVKGRFTISRDNSKNTLYLQMNSLRAEDTAVYYCAAQFSGADYGFGRLGIRGYEYDYWGQGTQVTVSS
Kd [8]: 29.1 nM

B13: SEQ ID NO 33 (Table 12): humanized 1D2 variant as bispecific VHH with 5C8var1 (bispecific antibody)
chain: EVQLVESGGGLVQPGGSLRLSCAASGRTASSYVMSWFRQAPGKGLEWVAVINWNGDSTYYADSVKGRFTISRDNSKNTVYLQMNSLRAEDTAVYYCAADTRREWYRDGYWGPPARYEYDYRGQGTLVTVSSGGGGSEVQLLESGGGSVQPGGSLRLSCAASGRPFSNYAMSWFRQAPGKEREFVSAISWSGGSTSYADSVKGRFTISRDNSKNTLYLQMNSLRAEDTAVYYCAAQFSGADYGFGRLGIRGYEYDYWGQGTQVTVSS
Kd [8]: 44.1 nM

B14: SEQ ID NO 34 (Table 12): humanized 1D2 variant as bispecific VHH with 5C8var1 (bispecific antibody)
chain: EVQLVESGGGLVQAGGSLRLSCAASGRTASSYVMGWFRQAPGKEREWVAVINWNGDSTYYTDSVKGRFAISRDNAKNTVYLQMNSLRAEDTAVYYCAADTRREWYRDGYWGPPARYEYDYRGQGTQVTVSSGGGGSEVQLLESGGGSVQPGGSLRLSCAASGRPFSNYAMSWFRQAPGKEREFVSAISWSGGSTSYADSVKGRFTISRDNSKNTLYLQMNSLRAEDTAVYYCAAQFSGADYGFGRLGIRGYEYDYWGQGTQVTVSS
Kd [10]: 2.6 nM

B15: SEQ ID NO 1 (Table 12): non-humanized (parental) anti-CD123 VHH 1D2 (VHH)
VHH: EVQLVESGGGLVQAGGSLRLSCAASGRTASSYVMGWFRQAPGKEREFVAVINWNGDSTYYTDSVKGRFAISRDNAKNTVYLQMNSLKPEDTAVYYCAADTRREWYRDGYWGPPARYEYDYRGQGTQVTVSS
notes: also called parental 1D2
Kd [11]: 3.1 nM
